Measurements: patent US20030064396A1 (published 2003)

Experiments:
[1] = target: human AR fragment coding for the amino acids 325 to 919 (AR2) (human) (UniProt P10275); assay: cell-based or functional assay
[2] = target: T1, human androgen receptor, complete (expression vector pSG5AR) (human, UniProt P10275 1-920, 35S-methionine-labeled in the pull-down of Example 4 (in vitro translated, T7 TNT reticulocyte lysate)); assay: mammal hybrid test, VP16 fusion, luciferase reporter in PC3 cells
T1 construct: mature; also called complete AR; 35S-methionine-labeled androgen receptor
T1 sequence (looked up): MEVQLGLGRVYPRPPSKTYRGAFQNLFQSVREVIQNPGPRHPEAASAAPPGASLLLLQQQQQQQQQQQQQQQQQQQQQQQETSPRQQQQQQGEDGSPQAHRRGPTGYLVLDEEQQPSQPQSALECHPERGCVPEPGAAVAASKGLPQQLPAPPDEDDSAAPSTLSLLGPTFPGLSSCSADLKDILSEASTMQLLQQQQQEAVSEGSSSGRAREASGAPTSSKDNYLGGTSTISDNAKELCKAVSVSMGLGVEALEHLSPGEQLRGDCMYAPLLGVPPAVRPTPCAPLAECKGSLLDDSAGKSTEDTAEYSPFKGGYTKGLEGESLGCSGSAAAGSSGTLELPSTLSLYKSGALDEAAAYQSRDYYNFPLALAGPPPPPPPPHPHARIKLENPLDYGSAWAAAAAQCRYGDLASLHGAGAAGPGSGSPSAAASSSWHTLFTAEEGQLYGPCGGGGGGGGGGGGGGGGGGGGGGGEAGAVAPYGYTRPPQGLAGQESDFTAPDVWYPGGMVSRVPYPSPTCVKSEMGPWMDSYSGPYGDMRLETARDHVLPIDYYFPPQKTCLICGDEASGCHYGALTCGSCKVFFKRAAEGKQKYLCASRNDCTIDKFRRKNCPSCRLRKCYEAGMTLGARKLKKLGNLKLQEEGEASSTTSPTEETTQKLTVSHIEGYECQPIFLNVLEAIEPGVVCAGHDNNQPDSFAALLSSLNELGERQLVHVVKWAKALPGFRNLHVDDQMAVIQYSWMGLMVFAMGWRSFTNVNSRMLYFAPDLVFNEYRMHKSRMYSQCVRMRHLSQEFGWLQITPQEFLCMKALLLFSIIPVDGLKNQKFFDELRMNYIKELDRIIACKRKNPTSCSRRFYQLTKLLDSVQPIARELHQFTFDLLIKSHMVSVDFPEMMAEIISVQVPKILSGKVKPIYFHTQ

[3] = target: T1, human androgen receptor, complete …; assay: GST pull-down of 35S-labelled AR; binding ratio against GST-empty, corrected for the protein amounts by Western blot, Exp. 4
Excerpt: (§1) A GST pull-down experiment is characterized by an experimental procedure, which allows binding of an in vitro expressed GST fusion protein to a similar in vitro expressed and radioactively labeled protein, subsequent separation from non-interacting proteins and detection and identification of the bound protein as a measure of the binding.

[4] = target: T1, human androgen receptor, complete …; assay: GST pull-down of 35S-labelled AR; binding ratio against GST-empty, corrected for the protein amounts by Western blot, Exp. 2
Excerpt: as §1

[5] = target: T1, human androgen receptor, complete …; assay: GST pull-down of 35S-labelled AR; binding ratio against GST-empty, corrected for the protein amounts by Western blot, Exp. 1
Excerpt: as §1

[6] = target: T1, human androgen receptor, complete …; assay: GST pull-down of 35S-labelled AR; binding ratio against GST-empty, corrected for the protein amounts by Western blot, Exp. 3
Excerpt: as §1

two-hybrid clone with an insert comprising 327 base pairs coding for part of the ORF of KIAA1380 (ARAP3) (from UniProt Q15652 1915-2023)
yeast-2-hybrid screen with and without 10^-6 mol DHT; lacZ-positive clones (β-galactosidase assay) [1]: 40 times

B1: ARAP3 fragment (AS 1430-1539 of Seq. ID No. 20) as fusion protein with VP16 (CMX-VP16-ARAP3-III) (other)
chain: DLLDAMHTLREKYGIKSHCHCTNKQNLQVGNFPTMNGVSQVLQNVLNHSNKISLCMPESQQQNTPPKSEKNGGSSPESDVGTDNKLTPPESQSPLHWLADLAEQKAREEK
notes: Expressed in transfected human PC3 cells; also called ID No. 20; not shown: VP16 fusion partner from the vector CMX-VP16
binding result [2]: binds

B2: GST-ARAP3: ARAP3 fragment (AS 1735 to 1840 of Seq. ID No. 14) as a GST fusion protein (vector pGEX-KG) (other)
chain: LDAMHTLREKYGIKSHCHCTNKQNLQVGNFPTMNGVSQVLQNVLNHSNKISLCMPESQQQNTPPKSEKNGGSSPESDVGTDNKLTPPESQSPLHWLADLAEQKARE
notes: also called ARAP3 fusion protein; GST-ARAP3 spherical particles; not shown: glutathione S-transferase (GST) tag of the vector pGEX-KG (Pharmacia)
Ratio GST-ARAP3/GST-empty [3]: > 100 Ratio
Ratio GST-ARAP3/GST-empty [4]: 1120 Ratio
Ratio GST-ARAP3/GST-empty [5]: 26.5 Ratio
Ratio GST-ARAP3/GST-empty [6]: > 100 Ratio
